Experimental findings from publication doi:10.1101/2025.03.23.644798 (bioRxiv, 2025) are described below.

This data set concerns the molecule itself. Nature of the data set: native gel or EMSA.

B1: wild-type D-amino acid oxidase from Schizosaccharomyces pombe (enzyme, UniProt Q9Y7N4 1-348, looked up)
chain: MTKENKPRDIVIVGAGVIGLTTAWILSDLGLAPRIKVIAKYTPEDRSVEYTSPWAGANFCSISATDDNALRWDKITYHRFAYLAKTRPEAGIRFADLRELWEYEPKHDKIRSWNTYVRDFKVIPEKDLPGECIYGHKATTFLINAPHYLNYMYKLLIEAGVEFEKKELSHIKETVEETPEASVVFNCTGLWASKLGGVEDPDVYPTRGHVVLVKAPHVTETRILNGKNSDTYIIPRPLNGGVICGGFMQPGNWDREIHPEDTLDILKRTSALMPELFHGKGPEGAEIIQECVGFRPSRKGGARVELDVVPGTSVPLVHDYGASGTGYQAGYGMALDSVMLALPKIKLA
Regarding B1, the binding result is “binds”.
